From paper PMC5986797, “Laminin heparin-binding peptides bind to several growth factors and enhance diabetic wound healing” (Nature Communications, 2018)

Tests used:
Set-up in all cases: species or system human
Conditions in all cases: 1 µg/mL LG domain coated; 1 μg/mL GF; vs BSA-coated wells; n = 4
VEGF-A165 = test: ELISA: VEGF-A165 binding to laminin LG domain / laminin peptide
Method: ELISA tests were performed as described above. In brief, […] recombinant protein, laminin alpha 4 LG domain recombinant protein (R&D Systems), laminin alpha 5 LG domain recombinant protein (LD BioPharma), or laminin peptide (sequences are described in Supplementary Table 1, chemically synthesized by Genscript) in PBS for 2 h at 37 °C. A concentration of 1 μg/mL of BSA served as non-binding protein control. After blocking with 2% BSA PBS-0.05% Tween 20 (PBS-T) solution, 1 μg/mL of the recombinant human proteins (VEGF-A121, VEGF-A165, PlGF-1, PlGF-2, PDGF-BB, or FGF-2) or 10 μg/mL of biotinylated heparin (Sigma-Aldrich) were added. Bound GF was detected with biotinylated antibodies for human VEGF-A, PlGF, PDGF-BB (R&D Systems, Catalog No. DY220, 1:180 dilution), or FGF-2 (R&D Systems). The antibodies were detected by streptavidin-HRP (R&D Systems).

VEGF-A121 = test: ELISA: VEGF-A121 binding to laminin LG domain / laminin peptide
Method: (§1) ELISA tests were performed as described above. In brief, ELISA plates were coated with 1 μg/mL of laminin alpha 3 LG domain recombinant protein, laminin alpha 4 LG domain recombinant protein (R&D Systems), laminin alpha 5 LG domain recombinant protein (LD BioPharma), or laminin peptide (sequences are described in Supplementary Table 1, chemically synthesized by Genscript) in PBS for 2 h at 37 °C. A concentration of 1 μg/mL of BSA served as non-binding protein control. After blocking with 2% BSA PBS-0.05% Tween 20 (PBS-T) solution, 1 μg/mL of the recombinant human proteins (VEGF-A121, VEGF-A165, PlGF-1, PlGF-2, PDGF-BB, or FGF-2) or 10 μg/mL of biotinylated heparin (Sigma-Aldrich) were added. Bound GF was detected with biotinylated antibodies for human VEGF-A, PlGF, PDGF-BB (R&D Systems, Catalog No. DY220, 1:180 dilution), or FGF-2 (R&D Systems). The antibodies were detected by streptavidin-HRP (R&D Systems).

PlGF-2 = test: ELISA: PlGF-2 binding to laminin LG domain / laminin peptide
Method: as §1

PlGF-1 = test: ELISA: PlGF-1 binding to laminin LG domain / laminin peptide
Method: as §1

PDGF-BB = test: ELISA: PDGF-BB binding to laminin LG domain / laminin peptide
Method: as §1

FGF-2 = test: ELISA: FGF-2 binding to laminin LG domain / laminin peptide
Method: as §1

- binding to VEGF-A165 (ELISA), recombinant LG domains (VEGF-A165): bound
- binding to VEGF-A121 (ELISA), recombinant LG domains (VEGF-A121): did not show any binding
- binding to PlGF-2 (ELISA), recombinant LG domains (PlGF-2): bound
- binding to PlGF-1 (ELISA), recombinant LG domains (PlGF-1): did not show any binding
- binding to PDGF-BB (ELISA), recombinant LG domains (PDGF-BB): bound
- binding to FGF-2 (ELISA), recombinant LG domains (FGF-2): bound
B1: LAMA5_3026–3482: laminin alpha 5 LG domain recombinant protein (LD BioPharma) (protein)
chain: AIQVFLLGGSRKRVLVRVERATVYSVEQDNDLELADAYYLGGVPPDQLPPSLRRLFPTGGSVRGCVKGIKALGKYVDLKRLNTTGVSAGCTADLLVGRAMTFHGHGFLRLALSNVAPLTGNVYSGFGFHSAQDSALLYYRASPDGLCQVSLQQGRVSLQLLRTEVKTQAGFADGAPHYVAFYSNATGVWLYVDDQLQQMKPHRGPPPELQPQPEGPPRLLLGGLPESGTIYNFSGCISNVFVQRLLGPQRVFDLQQNLGSVNVSTGCAPALQAQTPGLGPRGLQATARKASRRSRQPARHPACMLPPHLRTTRDSYQFGGSLSSHLEFVGILARHRNWPSLSMHVLPRSSRGLLLFTARLRPGSPSLALFLSNGHFVAQMEGLGTRLRAQSRQRSRPGRWHKVSVRWEKNRILLVTDGARAWSQEGPHRQHQGAEHPQPHTLFVGGLPASSHSSKLP
